# Paper PMC9108660
# How the values were obtained:
# [1] = biological target: dCas9 (catalytically deactivated Cas9) (UniProt Q99ZW2); test: SPR; conditions: SPR: 2 mM MgCl2, 37 °C, 30 min, 2 µL DNA (up to 1000 ng/µL), dRNP on graphdiyne chip, rinse 2 mM MgCl2, bead assay: 2 mM MgCl2, 37 °C, 1 h, pH not stated
# [2] = biological target: dCas9 (catalytically deactivated Cas9) (UniProt Q99ZW2); test: magnetic bead pull-down, qPCR; conditions: 2 mM Mg2+; SPR: 2 mM MgCl2, 37 °C, 30 min, 2 µL DNA (up to 1000 ng/µL), dRNP on graphdiyne chip, rinse 2 mM MgCl2; bead assay: 2 mM MgCl2, 37 °C, 1 h; pH not stated
# UniProt Q99ZW2, sequence (Q99ZW2 whole entry): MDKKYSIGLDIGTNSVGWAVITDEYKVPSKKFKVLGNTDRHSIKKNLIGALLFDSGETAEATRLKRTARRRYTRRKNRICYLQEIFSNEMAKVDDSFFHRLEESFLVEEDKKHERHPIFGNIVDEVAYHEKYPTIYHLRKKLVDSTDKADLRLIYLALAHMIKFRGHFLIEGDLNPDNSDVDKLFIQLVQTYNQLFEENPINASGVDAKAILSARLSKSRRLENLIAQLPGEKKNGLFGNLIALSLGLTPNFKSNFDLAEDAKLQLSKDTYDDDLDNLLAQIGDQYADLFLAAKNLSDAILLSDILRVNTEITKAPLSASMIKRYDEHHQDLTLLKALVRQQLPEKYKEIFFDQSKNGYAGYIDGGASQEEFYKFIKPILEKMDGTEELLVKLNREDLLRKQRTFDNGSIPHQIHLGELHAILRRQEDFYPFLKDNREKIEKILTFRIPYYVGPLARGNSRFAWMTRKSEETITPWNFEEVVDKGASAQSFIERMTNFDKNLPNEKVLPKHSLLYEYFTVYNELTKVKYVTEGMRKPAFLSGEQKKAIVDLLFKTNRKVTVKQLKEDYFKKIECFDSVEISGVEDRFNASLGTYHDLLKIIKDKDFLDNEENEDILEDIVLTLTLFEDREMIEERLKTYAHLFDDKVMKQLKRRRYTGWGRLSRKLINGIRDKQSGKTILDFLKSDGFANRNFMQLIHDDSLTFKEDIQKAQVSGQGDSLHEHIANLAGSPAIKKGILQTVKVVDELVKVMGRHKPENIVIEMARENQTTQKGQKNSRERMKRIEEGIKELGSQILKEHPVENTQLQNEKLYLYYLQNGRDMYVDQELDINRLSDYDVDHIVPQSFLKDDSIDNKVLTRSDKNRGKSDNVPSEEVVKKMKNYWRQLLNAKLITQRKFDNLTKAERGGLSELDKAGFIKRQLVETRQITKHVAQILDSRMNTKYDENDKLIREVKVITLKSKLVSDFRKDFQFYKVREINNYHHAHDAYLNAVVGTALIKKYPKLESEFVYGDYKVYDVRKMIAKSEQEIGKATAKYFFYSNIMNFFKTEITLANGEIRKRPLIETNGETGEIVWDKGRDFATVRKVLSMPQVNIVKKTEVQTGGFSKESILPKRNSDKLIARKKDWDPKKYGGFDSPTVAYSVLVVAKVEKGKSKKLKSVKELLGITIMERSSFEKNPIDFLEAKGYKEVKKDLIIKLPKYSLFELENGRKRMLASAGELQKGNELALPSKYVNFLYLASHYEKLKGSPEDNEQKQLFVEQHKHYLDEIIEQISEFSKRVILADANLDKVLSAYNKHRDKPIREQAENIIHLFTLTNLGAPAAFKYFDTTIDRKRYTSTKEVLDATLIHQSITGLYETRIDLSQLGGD
Sequence,"Kd ([1]; 2 mM Mg2+, ka 0.11e5 M-1s-1, kd 6.5e-3 s-1)",binding signal [2],Kd [1]
GGGGUUCGCCUUCCGCCGCGUGGGUUUUAGAGCUAGAAAUAGCAAGUUAAAAUAAGGCUAGU [sgRNA-GFP-Pos3 + pCDH-GFP-5k amplicon],0.591 µM,–,–
GGGUGCCUGCAGCUCCACACUAGGUUUUAGAGCUAGAAAUAGCAAGUUAAAAUAAGGCUAGU [sgRNA-Mut3 + pUC19-Mut3-0.3k amplicon],–,99.8 % captured,–
GGGUGCCUGCAGCUCCACACUAGGUUUUAGAGCUAGAAAUAGCAAGUUAAAAUAAGGCUAGU [sgRNA-Mut3 + pUC19-Mut3-0.8k amplicon],–,99.8 % captured,7.61 10^-8 M
GGGUGCCUGCAGGUCGCACCUAGGUUUUAGAGCUAGAAAUAGCAAGUUAAAAUAAGGCUAGU [sgRNA-Mut1 + pUC19-Mut1-0.3k amplicon],–,89.2 % captured,–
GGGUGCCUGCAGGUCGCACCUAGGUUUUAGAGCUAGAAAUAGCAAGUUAAAAUAAGGCUAGU [sgRNA-Mut1 + pUC19-Mut1-0.8k amplicon],–,69.8 % captured,–
GGGUGUAGUAGCCGCCGUCGCGCGUUUUAGAGCUAGAAAUAGCAAGUUAAAAUAAGGCUAGU [sgRNA-GFP-Pos2 + pCDH-GFP-2k amplicon],–,99.4 % captured,–
GGGUGUAGUAGCCGCCGUCGCGCGUUUUAGAGCUAGAAAUAGCAAGUUAAAAUAAGGCUAGU [sgRNA-GFP-Pos2 + pCDH-GFP-5k amplicon],–,99.7 % captured,1.38 10^-8 M
